Data: a protein production outcome set (Wang et al. 2014)

experiment: label from the status in PepcDB records

Protein production, failed:
MNSFLIIIFRLYLPISVAILTGVLLSFSLEKLQGNFSKNKHLSLVVPNYLGKFLFWFGVPLGVINFVHKANLSGGIWLSPIVAWGAVVLGIFLSWLWVQTLFPKPSLAFQTSFTLVSTVGNTSYIGFPIILLLPQLGPDYFGWAILYDLLGTFLAAYGLGSILASRSLLTNPNKIISFGLDSPVFPINQKTITDHIKSSILKIFQWLKNNLVILVKNPTLIAFIIGLILRPIVFPPWLDISLGWFAWSIIMLSLILMGMRLQQLDSWGNIKIAFSAVSIKMLLVPLVIAMALTTAGLSGPPRLVLVLQSSMPSAFASLILAEAYDLDRDLVVTCLGLSSLMLFFTLPFWLWGFTTW
MNSILPSVSTLAVGARPARPNVSVVMVVYRTGEALVESIRHVLAEPLVDEFIIVDNGSSSRDEDMLRSLALTEPRVVLKQGHGNVGFARGANLGAVTAGGEYIVFLNPDANLQPSCVASLVTAFKGQPVPTIVGARVLNTDGSEQRGGRRGDVTPISTVLSFGQLTRRYPKLAGFEIHRENEPLPGAPVPMPTISGACFAMRRADFVALNGFDEGYFLHVEDIDLCWRARRAGGQVLFQPNAEVVHLGHTSLEHPVKVEFHKGVGLTRYFIKRADSLQLFAAAVLLAPAIMLMSVCRPLLWKLTGRPI
MNSKAMQALIFLGFLATSCLAQAPAPAPTTVTPPPTALPPVTAETPSPIASPPVPVNEPTPAPTTSPTTSPVASPPQTDAPAPGPSAGLTPTSSPAPGPDGAADAPSAAWANKAFLVGTAVAGALYAVVLA
MNSKTHLLLALTMLIWAGSFIFIKIGLKELDPFNLAFYRFLLASPLLMAWVFWKRGLAKPSGSEWLHLSVLALSGVTLLYAFQFLALKYTTATNASILINTSAVFVALWGLVKGEANPRKLAGVFLSFAGVVLIVSKGTLEFFSSKTIFGDVLMIVDGFLWAVYTVLGSKMLLKYDHETLTAYAFALGTIFLIPFALMSGFANPVTFNPETVAALLYLSILCSVFAYVVWYYALTNADSTSVAVYVYLVPLFTAIFAFYALNEKPDFFTAIGGIITIAGVYLTTAKQHQ
MNSLDKLKTFIIILIIFSIGFFSRIETAELKGMNTADRAYFTDENGLPYMYEPDSYYNYRLTANILDHGHPGDKIINGTPWDLHSNYPPGNRVNYPPLILWISLLFHNFINLFIPFSLIETCFWLPAIIGPLAGIVMFFMVRRYAGDLPGLLSGVLLVLAPVYFSRTVPGFFDTDMFNIIFPLLVIFFLLKATETKNNYMFPLLLSSFSLALLSLSWNGWAYIFYIIIISSILYMTLCKLKGKAVMGFSRKIAVFVIISLLIIGLAGRLGYALIFPTFFKFTFKSLSAGGWPGIFESISELSAPTFDEFLSLPGPVNMGIGLFGFVIIGSIMLRDEIKRVHLPDFSWYPFILIGIWLIIGLAAYSLSTRFALLVIPPLIIFLGLLMGVMASYLKGSPSMRLRRSGNVFILSLVVMLSTISFIQAYEIQFVPIVDDDFVAASYWIKNETSMDTVVITEWGYGHPLATFSQRPVLMDGGMNPSTPRSYWVYHAFATNNESLSIGIFSMLSTSGNKAVELLNNRTGNTSLTVTILDDILGVNRIYAEKTLQEKYGIDPGFTGELLSYTHPTNKPFIILTKDDMIKWGHWYIYYGFWDFNRSRGYDYIYYVGSSNDTGQIRYYSNDVKFDLTSGASWENRKPYTTIIKYRNFKRVIEGDGKSDFSIIVLLDKNQAIVVDKRFQDSLFVKLVILKEETEHIKPIYKNNSTIIWTVR
MNSLPGSIQTSRTNQQRPLISVIVPAYNAEDFILEALRSITAQDYEPLEILLVDDGSTDGTADLVRREMPTVRIIRQDNTGVAEARNTGLRNACGEFICLLDADDGWCPGKLHAQVQYLQQHPQTGAVYHAWQVWRPDAEGNFVSMPAPVVADSTAIDPALSGWIYPQLLMDCIVHTSTIMMRREFVEQLGFFRAELINGEDYDYWLRLSRLTRIDKLVGVYSFYRGSPGSLTNSVKPVNYEYNVVSAAAAKWGLAAPDGRALAAVDFQRRLGKLAFDFAYRHYRWGSARIARRAALQAWRHDPRRYKALLFWLASFFKREPRSAVQG
MNSPWETESGDRRVESGAGVSVGGRGQSRPRSCSIKAAEGKKGRSSACAPRWRLRSALLREDRCRSAPRIPRGCFSPRAPWRGGNSCAHCPRPRSGRPETGRAWGSRRAPRRGRPPAHGAPRPLPGLPRAASDRWAPARTSLIFILCPRGCLLLSARTLGIPWQPTSLRSRPTSLSPASCATQRASSWACSSASIETRPLNFFISYDAPPLRTRTIKLLVTFLVEEVSRNGAAKQEQFQETLYFTHLPRDKRLQKELLALQNDPPPGMTLNEKSVQNSITQWIVDMEGAPGTLYEGEKFQLLFKFSSRYPFDSPQVMFTGENIPVHPHVYSNGHICLSILTEDWSPALSVQSVCLSIISMLSSCKEKRRPPDNSFYVRTCNKNPKKTKWWYHDDTC
MNSQEQRGSFYAILSGFLYGFIGYFGISAIHGDLSASNMLFWRFLISSIFILIVLIPQLKNINDTYKSMFTAFLSGVLYYGLSTLLYFYASLYIGSGLSMVIFFTYPVIIMVFNYFFYSQTIPKIYYLAISVILIGMALLIDVNEIAFDLWGIFLGLASAFFYACYIVSSKNNEISPNVSTLMVCLGCMTTSLIVACLDHTFKVPTSFPVWLNLFGIGLVATVIPILLMLHSLKYISSEKASILSVLEPVFVVIFGVVLLGEELKPWHALGIVLVLAGALITLFSHRINLNQWLGAIYKS
MNSTLKSSVYILLIISVILVLNGYSYADSYVGGKPLDTLQNGTVTGDVNVDSYYGFTDPEGVGNNTGGNANITYTFNYTIPSNAQIKNATLYVLVYSGHMQEARQTYVNVTYNGNSLENQTLYTTYIYPPEGNNNTWLLGEGHDNDPYLMINNHTMRVTSDYLLWYDVTNMTKKDMNNTANVCTIGSYDGRIKLITLIVAYNIPGSTTATRYWINWGHDVSSYNDEDYTGETYFNGAVPNPANASVMIVHAASSDGIYTYNDQNLPNGTYQRRGSYSGYEIWNVTNIYNNGTNKFTYHKSPGTGLGGYYKIILAVQKVTYTPNIDLTLQTVTFNGGAAFVLENNTMRCQIKNNGSGASPATILALYANDELVATSIIPPINPSGTVYVNITDPTIRSATTETLYSNNNQNVTYRFVIDPYNEVPETNEANNEKTRTVPVLYNGYKG
MNSVYFLNVSEALATPQDKLHTVRLFGTVAADGLTMLDGAPGVRFRLEDKDNTSKTVWVLYKGAVPDTFKPGVEVIIEGGLAPGEDTFKARTLMTKCPLEHHHHHH
MNSYKYLKYSQYAKQALIFINFLAVTYYVFVYLFASKYIVAKNLSHVLLDKLDIVPIAPENIFFTTLFFFAIFLIVMFYRESILNKKEEINDWLIVAEIVLMILTFISLQFSYNGLFLLVFADIFYSYANFYNVKEQKYWLLFIILGFSMLLISNFDLLSLVMRLPSLDVYISFFPSGSRLIVMFIKNFLYSLNIIVFLISLVAYIMYSVAENHKIEEELRMAARANIELNDYVSLAEKIAEDKERKRIAREIHDTLGHALTGISAGIDAVTVLVDFDPNHAKSQLKNVSDVVREGIQDVRRSLEKMRPGALEKGSLKEALLKMIADYEKLSKLQVSLHYDWDNIDLDITKEDIIFRVIQETITNSLRHGHARHVSIDMLNEDFYIIKIKDDGIGCEDFKLGYGLTQMQERLAIIGGYADFESDDGFQTMVRIPKKKGEE
MNTDNPKSHISRIAYPAIIVFLILTLLGSLVERFHPFTSWLTPPVALLMGLAYALIFGSTHRRANKLGSKVLLQYSVVGLGFGMNLGESLASGRDGMMFTIISVFGTLLLGWFIGRKILQMNRNTSALISAGTAICGGSAIAAVGPILKAEEHEMSVALGTVFLLNAVALFIFPSIGHWLALDQQQFGTWAAIAIHDTSSVVGAGSAYGEEALRVATTIKLTRALWIVPLTLVFSFVYKTKGAKRFPVPLFILFFIGAIILNTYLLEAYFPEVGRFVASLARKGLTLSLFFIGASLTKEVIASVGVRALLQGLFLWILISVGSLAFILLI
MNTEAEQQLLHHARNGNAEEVRKLLEAMARAEVVADIDCKGRSKSNLGWTPLHLACYFGHKQVVQDLLKAGAKVNMLNDMGDTPLHRAAFTGRKELVMLLLEYNADTTVVNGSGQTAKEATHDKEIRQMLEAVERTQQRKLEELLLGAAREGRTAEVSALLSRPNPPDVNCSDQLGNTPLHCAAYRAHKQCVLKLLRSGADPSLKNKNDQKPLDLAHGTEMKHILVGNKVVHKALKRFEGPLWKSSRFFGWKLFWVVLEHGVLSWYRKQPDAVHNSYRQGCKHLTQAVCTVKPTDGCLFSVRCFDDTVHGFRVPKNSLQQSREKWLEAIEEHSAYSTHYCSQDQVTDDEEEDVASAMDLKESLARAQTCQQRLDREIYNFLKMIKECDVAKDMLPSFLQKADVLSEASRETCVALSDCLNLFTKQEGVRNFKLEQEQEKNKILSEALETLATEHHELERSLVEGSPPVSILSEDEFYDALSGSESEGSLTCLEAVTARAFEENEVPANSGKHRMSEGKDCGGGDALSNGIKKHRTSLPSPMFSRNDFSIWSILRKCIGMELSKITMPVIFNEPLSFLQRLTEYMEHTYLIHKASSFSDPVERMQCVAAFAVSAVASQWERTGKPFNPLLGETYELVRDDLGFRLISEQVSHHPPISAFHAEGLNNDFIFHGSIYPKLKFWGKSVEAEPKGTITLELLEHNEAYTWTNPTCCVHNIIVGKLWIEQYGNVEIINHKTGDKCVLNFKPCGLFGKELHKVEGYIQDKSKKKLCALYGKWTECLYSVDPATFDAYKKNDKKNTEEKKTSKQASTSEESDEMPVPDSESVFVIPGSALLWRIAPRPPNSAQMYNFTSFAMVLNEVDKEMETVIPKTDCRLRPDIRAMENGEIDQASEEKKRLEEKQRAARKNRSKSEEDWKTRWFHQGPNPYSGAQDWIYSGSYWDRNYFNLPDIY
MNTFGIFLTISAYTFFSWAYSKKKTPILNPVLLSILLIALILKVGNISYEKYMESARFLSFLLGPAVVSLAIPLYKQINIVKEYKKEIATGIITGGTTAILSAVYILKAFNSPEILQRTIAPKSVTTAIAMGVSEKIGGIPELTAVLVILTGILGNALAPELLDFFKIKDRVARGLATGVSSHGLGTARIILEDELSGAVSGLAMALNGVYTAFLLPLIIELIV
MNTKNLVFVALFSSIMGVLGLIPPIALSITPVPITLQSLGVMLAGGLLGSRLGALSQLIFLLIVGVGAPLLAGGRGGLGVFVGPSAGYLLGYIIGAFVIGYLIERLREVSIIKVLCINIIGGIFVVYVFGITVQAFLMDVSVWETMKVSAVFLPGDCIKAIIAAVLVTKLHRSLKHIITPALKNGKYTNAG
MNTLFFSRQQYWLALIFGCLLVFLAASLGHGQWLDYAQRVATLDEPLSRLRWIVGDISEVAFYKHELPALGLLLGACLAHWAQLRGYRWQGFAICYGSGLWPWVFTSSLLGLLLSHVLWGWTLASGTWQPTFVAFVSLPAAMVLLFGAGWRVTITGALLGALLVTPAGLLMVNYLCYPLQLPVVVGNVSGMAVASVVAFILCKRFPSWVRQCGEPTVVAPVVNQPDYGVVWTLRRVLADFSEAPFFGNELASLGLLLGVLLAYLLSPAALSYGSMLVMQMVAGQALASLVGVVLWRGQWKARGWYPTYIPIVSIVPAAVLTHGGSWQVVVASAVLGALVAPPLAVAITQRLPAYVHGYIGNVVSMAICTLGIVPVVGLLVGGEA
MNTLIIAKKEIVSAFRDKRTFLFMLAFPIVLIMILGTALTNAFDQQAAVGEVRVLYKDNSDGAFSQGFKTFVKEAKTSGVHFKKVLSDMDEKQEIKQGNYDAYLEIENSGIKLYQMDKNSMKNSIIQGMLTAFANRYNAAAEIIKAAPEQAGAVLGDAPGDNYIKETSLSSDRKPSSMDYYAVAMTTLIALYSALSASYLIRGERLRKTADRLIAAPVHKGEIFAGKLIGNLVTNGLCIFAVVAVSKYVFKAYWGEHLGLVAAVLFSIVLFAVCLGLGVSYLTRTGEAAVAIINVLIPLVAFFGGAYFPVDDAEGVLALITDLSPLAWTNEAIMNIIFADDLAAGLPAILLNIGLSLLFLLIAVVSLQRREGL
